# Patent US7727960B2, “C5a receptor antagonists” (Jerini AG, priority 2003, dated 2010)
# Starred links: 1 amine or outer side, 2 acyl side, 3 side chain; linkers in the order of their positions; H or OH if unused. Positions of bridges follow the written chain, without caps; N, C: chain ends. Non-standard residues stand in square brackets, D forms with d. No end group written: not given here. *: point of attachment. Edn = Cys(CH2-CH2-4-pyridyl), O=C([C@H](CSCCc1ccncc1)N[*:1])[*:2]; Fck = HO-CH2-(CHOH)4-C=N-O-CH2-CO- (oxime-linked sugar acyl cap); Ebo = Cys(4-picolyl), O=C([C@H](CSCc1ccncc1)N[*:1])[*:2]; Ebu = Cys(3-picolyl), O=C([C@H](CSCc1cccnc1)N[*:1])[*:2]; Ecg = Cys(2-picolyl), O=C([C@H](CSCc1ccccn1)N[*:1])[*:2]; Phe(F5) = N[C@@H](Cc1c(F)c(F)c(F)c(F)c1F)C(=O)O; Phe(4-tBu) = CC(C)(C)c1ccc(C[C@H](N)C(=O)O)cc1; Fbo = morpholine-4-carbonyl, O=C(N1CCOCC1)*; 1Nal = N[C@@H](Cc1cccc2ccccc12)C(=O)O; 2Nal = N[C@@H](Cc1ccc2ccccc2c1)C(=O)O; d(hLeu) = CC(C)CC[C@@H](N)C(=O)O; hCit = NC(=O)NCCCC[C@H](N)C(=O)O; αMeF = C[C@](N)(Cc1ccccc1)C(=O)O; 4Pal = N[C@@H](Cc1ccncc1)C(=O)O; 2Thi = N[C@@H](Cc1cccs1)C(=O)O; Cha = N[C@@H](CC1CCCCC1)C(=O)O; dCha = N[C@H](CC1CCCCC1)C(=O)O; dChg = N[C@@H](C(=O)O)C1CCCCC1; Phg = N[C@H](C(=O)O)c1ccccc1; Nle = CCCC[C@H](N)C(=O)O; Orn = NCCC[C@H](N)C(=O)O; Aze = O=C(O)[C@@H]1CCN1; Ecf = Cys(O-3-picolyl); Fbn = not defined here
# B1: Ac-Phe-[Orn-Pro-cha-Trp-Ebu] (peptide)
# peptide: Ac-F[Orn]P[dCha]W[Ebu]
# modifications: lactam (positions not given here); not fully specified (bridges); printed as Ac-Phe-[Orn-Pro-cha-Trp-Ebu]
# B2: Fck-[Phe-Orn-Pro-cha-Trp-Nle] (peptide)
# peptide: Fck-F[Orn]P[dCha]W[Nle]
# modifications: bridge (positions not given here); not fully specified; printed as Fck-[Phe-Orn-Pro-cha-Trp-Nle]; also: cyclic [1-6], linkage not given here
# B3: Ac-Phe-[Orn-Pro-cha-Trp-Ecg] (peptide)
# peptide: Ac-F[Orn]P[dCha]W[Ecg]
# modifications: lactam (positions not given here); not fully specified (bridges); printed as Ac-Phe-[Orn-Pro-cha-Trp-Ecg]
# B4: H-Phe-[Orn-Ser-cha-Trp-Phe] (peptide)
# peptide: H-F[Orn]S[dCha]WF
# modifications: lactam 2-C
# SMILES: N[C@@H](Cc1ccccc1)C(=O)N[C@H]1CCCNC(=O)[C@H](Cc2ccccc2)NC(=O)[C@H](Cc2c[nH]c3ccccc23)NC(=O)[C@@H](CC2CCCCC2)NC(=O)[C@H](CO)NC1=O
# B5: H-Amf-[Orn-Aze-hle-Pff-Nle] (peptide)
# peptide: H-[αMeF][Orn][Aze][d(hLeu)][Phe(F5)][Nle]
# modifications: lactam 2-C
# SMILES: CCCC[C@@H]1NC(=O)[C@H](Cc2c(F)c(F)c(F)c(F)c2F)NC(=O)[C@@H](CCC(C)C)NC(=O)[C@@H]2CCN2C(=O)[C@@H](NC(=O)[C@@](C)(N)Cc2ccccc2)CCCNC1=O
# B6: Ac-Phe-[Orn-Pro-cha-Trp-Ppa] (peptide)
# peptide: Ac-F[Orn]P[dCha]W[4Pal]
# modifications: lactam (positions not given here); not fully specified (bridges); printed as Ac-Phe-[Orn-Pro-cha-Trp-Ppa]
# B7: Ac-Phe-[Orn-Pro-cha-Trp-Phe(4-Amidin)] (peptide)
# peptide: Ac-F[Orn]P[dCha]W[Phe(4-Amidin)]
# modifications: lactam (positions not given here); not fully specified (bridges); printed as Ac-Phe-[Orn-Pro-cha-Trp-Phe(4-Amidin)]
# B8: Ac-Phe-[Orn-Pro-cha-Trp-Ebo] (peptide)
# peptide: Ac-F[Orn]P[dCha]W[Ebo]
# modifications: lactam (positions not given here); not fully specified (bridges); printed as Ac-Phe-[Orn-Pro-cha-Trp-Ebo]
# B9: Ac-Phe-[Orn-Pro-cha-Trp-Ecf] (peptide)
# peptide: Ac-F[Orn]P[dCha]W[Ecf]
# modifications: lactam (positions not given here); not fully specified (bridges); printed as Ac-Phe-[Orn-Pro-cha-Trp-Ecf]
# B10: Ac-Phe-Orn-Ser-cha-Trp-Phe-OH (peptide)
# peptide: Ac-F[Orn]S[dCha]WF-OH
# SMILES: CC(=O)N[C@@H](Cc1ccccc1)C(=O)N[C@@H](CCCN)C(=O)N[C@@H](CO)C(=O)N[C@H](CC1CCCCC1)C(=O)N[C@@H](Cc1c[nH]c2ccccc12)C(=O)N[C@@H](Cc1ccccc1)C(=O)O
# B11: Ac-Phe-[Orn-Pro-cha-Trp-Hci] (peptide)
# peptide: Ac-F[Orn]P[dCha]W[hCit]
# modifications: lactam (positions not given here); not fully specified (bridges); printed as Ac-Phe-[Orn-Pro-cha-Trp-Hci]
# B12: Ac-Phe-[Orn-Pro-cha-Trp-Edn] (peptide)
# peptide: Ac-F[Orn]P[dCha]W[Edn]
# modifications: lactam (positions not given here); not fully specified (bridges); printed as Ac-Phe-[Orn-Pro-cha-Trp-Edn]
# Target: T1, human C5aR (CD88) (human, UniProt P21730 1-350)
# T1 sequence (looked up): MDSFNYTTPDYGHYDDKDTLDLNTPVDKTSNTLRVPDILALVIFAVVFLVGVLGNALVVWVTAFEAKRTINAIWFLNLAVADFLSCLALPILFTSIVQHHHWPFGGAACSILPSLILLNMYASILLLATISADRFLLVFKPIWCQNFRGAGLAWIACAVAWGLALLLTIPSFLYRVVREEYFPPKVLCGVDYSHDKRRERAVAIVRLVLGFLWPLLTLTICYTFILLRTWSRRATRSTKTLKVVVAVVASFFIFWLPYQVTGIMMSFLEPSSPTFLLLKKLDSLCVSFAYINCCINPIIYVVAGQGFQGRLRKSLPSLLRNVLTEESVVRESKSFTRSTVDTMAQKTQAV
# Test: cell-based or functional assay
"IC50 activity group, enzyme release assay [nM]","EC50, agonistic activity, enzyme release assay [nM]",Molecule
< 200,–,H-Phe-[Orn-Hyp-hle-Trp-Nva] (peptide)
< 50,–,Ac-Phe-Orn(Ac)-Aze-cha-Bta-Phe-NH2 (peptide)
< 200,–,Ac-NMF-Orn-Pro-cha-Bta-Phe-NH2 (peptide)
< 50,–,FAc-Phe-Orn-Aze-cha-Bta-Phe-NH2 (peptide)
< 20,–,Ac-Lys-Phe-Orn-Aze-cha-Bta-Phe-NH2 (peptide)
< 50,–,Ac-Eby-Orn-Pro-cha-Bta-Phe-NH2 (peptide)
< 50,–,Ac-Thi-Orn-Pro-cha-Bta-Phe-NH2 (peptide)
< 200,–,Ac-Phe-Orn-Pro-hle-Pff-2Ni-NH2 (peptide)
< 200,–,Ac-Phe-Orn-Pro-hle-Bta-Pcf-NH2 (peptide)
< 200,–,Ac-Phe-Orn-Pro-hle-Tff-Phe-NH2 (peptide)
< 200,–,H-Phe-Cit-Pro-hle-Bta-Phe-NH2 (peptide)
< 20,–,Ac-Phe-Orn-Pro-cha-Bta-Mff-NH2 (peptide)
< 200,–,Ac-Phe-[Orn-Pro-hle-Bta-Phe] (peptide)
< 50,> 100000,Ac-Thi-Orn-Pip-cha-Bta-Phe-NH2 (peptide)
< 200,–,Ac-Phe-[Orn-NMD-cha-Trp-Nle] (peptide)
< 50,–,Ac-Thr-Phe-Orn-Aze-cha-Bta-Phe-NH2 (peptide)
< 200,–,Ac-Phe-Orn-Pro-ctb-Mcf-Phe-NH2 (peptide)
< 200,–,Ac-Phe-[Orn-Hyp-hle-Mcf-Phe] (peptide)
< 50,–,Ac-Off-Orn-Pro-cha-Bta-Phe-NH2 (peptide)
< 50,–,H-Phe-[Orn-Hyp-cha-Trp-Nle] (peptide)
< 50,> 100000,Ac-Phe-Orn-Pip-cha-Trp-Phe-NH2 (peptide)
< 200,–,Ac-Phe-Orn-Hse-cha-Bta-Phe-NH2 (peptide)
< 20,–,Ac-Phe-[Orn-Hyp-cha-Trp-Nle] (peptide)
< 200,–,Ac-Phe-Orn-Pro-hle-Egy-Phe-NH2 (peptide)

# Target: T1, human C5aR (CD88)
# Test: cell-based or functional assay
# Remark: another data set of the same source
row,"IC50 activity group, enzyme release assay [nM]",Molecule
1,≤ 2000,B1
2,≤ 200,Ac-F[Orn]P[dHch]WF-OH [Ac-Phe-Orn-Pro-hch-Trp-Phe-OH]
3,≤ 50,Ac-F[Orn]P[dCha]W[1Nal]-NH2 [Ac-Phe-Orn-Pro-cha-Trp-1Ni-NH2]
4,≤ 200,B2
5,≤ 200,Fck-F[Orn]P[dCha]W[Nle] (lactam 2-C (inferred)) [Fck-Phe-[Orn-Pro-cha-Trp-Nle]]
6,≤ 2000,B3
7,≤ 50,Ac-F[Orn]P[dCha]W[2Nal]-NH2 [Ac-Phe-Orn-Pro-cha-Trp-2Ni-NH2]
8,≤ 200,Fbn-F[Orn]P[dCha]W[Nle] (lactam 2-C; reading uncertain; also: printed as Fbn-Phe-[Orn-Pro-cha-Trp-Nle]) [Fbn-Phe-[Orn-Pro-cha-Trp-Nle]]
9,≤ 200,Ac-F[Orn]P[dCha]W[2Thi]-NH2 [Ac-Phe-Orn-Pro-cha-Trp-Thi-NH2]
10,≤ 200,Ac-F[Orn]P[dCha]W[Cha]-NH2 [Ac-Phe-Orn-Pro-cha-Trp-Cha-NH2]
11,≤ 50,B4
12,≤ 50,H-F[Orn]P[d(hLeu)]W[Nle] (lactam 2-C) [H-Phe-[Orn-Pro-hle-Trp-Nle]]
13,≤ 200,B5
14,≤ 2000,Ac-F[Orn]P[dCha]W-{NH‑CH2‑CH2‑Ph} [Ac-Phe-Orn-Pro-cha-Trp-NH-CH2-CH2-Ph]
15,≤ 200,B6
16,≤ 2000,FXPXWX (not fully specified; Ac-; Orn2; cha4 (D); Eew6; cyclic [2-6]) [Ac-Phe-[Orn-Pro-cha-Trp-Eew]]
17,≤ 2000,B7
18,≤ 2000,Ac-F[Orn]P[dCha]W[Phe(4-tBu)]-NH2 [Ac-Phe-Orn-Pro-cha-Trp-Eap-NH2]
19,≤ 2000,Ac-F[Orn]P[dCha]W[Phg]-NH2 [Ac-Phe-Orn-Pro-cha-Trp-Phg-NH2]
20,≤ 2000,B8
21,≤ 2000,B9
22,≤ 2000,B10
23,≤ 200,H-F[Orn]P[dCha]W[Nle] (lactam 2-C) [H-Phe-[Orn-Pro-cha-Trp-Nle]]
24,≤ 2000,B11
25,≤ 200,FXPXWR (not fully specified; Ac-; Orn2; cha4 (D); Arg(Me2)6; cyclic [2-6]) [Ac-Phe-[Orn-Pro-cha-Trp-Arg(Me2)]]
26,≤ 2000,{Ph2‑CH‑CH2‑CO}-[Orn]P[dCha]WF-NH2 [Ph2-CH-CH2-CO-Orn-Pro-cha-Trp-Phe-NH2]
27,≤ 200,Fbo-F[Orn]P[dCha]W[Nle] (lactam 2-C (inferred)) [Fbo-Phe-[Orn-Pro-cha-Trp-Nle]]
28,≤ 2000,B12
29,≤ 2000,Ac-F[Orn]P[dChg]WF-OH [Ac-Phe-Orn-Pro-chg-Trp-Phe-OH]
